Assay results: PMC3836730, “Molecular Cloning and Characterization of Taurocyamine Kinase from Clonorchis sinensis: A Candidate Chemotherapeutic Target” (PLoS Neglected Tropical Diseases, 2013)

B1: C. sinensis TK D1 (CsTK D1) (Clonorchis sinensis) (protein)
chain: MQVEPLKSLQQKIVNDEANRSFTKKHLTNRIVDLYADKKTSFGGSLAQCVSHNARNPRCILPRACDLDAYEAFREFFDAVIIDYHKVKGDKITHPKSDFGDLKSLNFKDLNADGNMVVSTRVRLGRTVAGYGFCPTISNEQRLELEKKISTALKDLSGEFKGTYYPLTGMKEEDRKKLVEKHFLFRDDDSVLRDAGGYIDWPNGRGIFINEKENFLVWVNEEDHIRVISMQKGGDLIAVYKRLANAISELGKSLTFATNDRFGFITFCPSNLGTTLRASVHARVPYLSALPNFEQICEKYNIQARGTHGEHTASVGGVYDLSNKRRLGLTEIEAVTEMYNGVQALLDLEKQLAAYNKDAP
notes: truncated N-terminal domain D1 (360 residues of the 717-residue two-domain protein, 40,573 Da); MBP fusion (pMAL-c2), E. coli TB1, amylose resin; about 80 kDa with MBP
B2: C. sinensis TK D2 (CsTK D2) (Clonorchis sinensis) (protein)
chain: AGVMPVEPLTYLSHLLEAADPVKNYTRKHLTPEIIKKYDGVRTTHGATLAHMVRNGAYNPHSICPRTGEAECYTKFVDYLDAVILDYHGVSDPAFKHPPPTFGDLNNLPFGDVDPEGKFVVSTRVRVGRSVDGFLFSTIMSKQDRLDLETKVSTALKSLTGDHAGSYYPLANMSEATRKQLVEDHFLFKNDDPVLRDAGGYRDWPHGRGIFHNANKTFLVWLCEEDHMRIISMQKGGDLAAVYKRLIQGIQAIEKTLPFAHSDKYGYITCCPSNLGTTMRASVLLKIPKLSAQKAKLDEVCAKYRLQARGLHGEHTESPEGIHDISNKRRLGLTELEAAKEMADGVAQMIAIEKSLP
notes: truncated C-terminal domain D2 (357 residues of the 717-residue two-domain protein, 39,719 Da); MBP fusion (pMAL-c2), E. coli TB1, amylose resin; about 80 kDa with MBP
B3: C. sinensis TK whole (CsTK D1D2) (Clonorchis sinensis) (protein)
chain: MQVEPLKSLQQKIVNDEANRSFTKKHLTNRIVDLYADKKTSFGGSLAQCVSHNARNPRCILPRACDLDAYEAFREFFDAVIIDYHKVKGDKITHPKSDFGDLKSLNFKDLNADGNMVVSTRVRLGRTVAGYGFCPTISNEQRLELEKKISTALKDLSGEFKGTYYPLTGMKEEDRKKLVEKHFLFRDDDSVLRDAGGYIDWPNGRGIFINEKENFLVWVNEEDHIRVISMQKGGDLIAVYKRLANAISELGKSLTFATNDRFGFITFCPSNLGTTLRASVHARVPYLSALPNFEQICEKYNIQARGTHGEHTASVGGVYDLSNKRRLGLTEIEAVTEMYNGVQALLDLEKQLAAYNKDAPAGVMPVEPLTYLSHLLEAADPVKNYTRKHLTPEIIKKYDGVRTTHGATLAHMVRNGAYNPHSICPRTGEAECYTKFVDYLDAVILDYHGVSDPAFKHPPPTFGDLNNLPFGDVDPEGKFVVSTRVRVGRSVDGFLFSTIMSKQDRLDLETKVSTALKSLTGDHAGSYYPLANMSEATRKQLVEDHFLFKNDDPVLRDAGGYRDWPHGRGIFHNANKTFLVWLCEEDHMRIISMQKGGDLAAVYKRLIQGIQAIEKTLPFAHSDKYGYITCCPSNLGTTMRASVLLKIPKLSAQKAKLDEVCAKYRLQARGLHGEHTESPEGIHDISNKRRLGLTELEAAKEMADGVAQMIAIEKSLP
notes: full-length contiguous two-domain enzyme, 717 residues, 80,274 Da; MBP fusion (pMAL-c2), E. coli TB1, amylose resin; 120 kDa with MBP

Tested on: N=C(N)NCCS(=O)(=O)O
Experiment: purified protein
Format: biochemical, Clonorchis sinensis
Conditions: co-substrate ATP, Mg-acetate, Tris-HCl pH 8, 25°C

“C. sinensis TK D1 (CsTK D1) (Clonorchis sinensis; I60A)” was tested. Which Km did it give?
Its Km is 510 ± 70 µM.

What about the kcat of the same molecule?
Its kcat is 22.43 ± 0.38 s⁻¹.

What about the kcat/Km of the same molecule?
The kcat/Km was 44000 M⁻¹ s⁻¹.

With “C. sinensis TK D1 (CsTK D1) (Clonorchis sinensis; R58A)” as the molecule, how does the Km read?
Its Km is 850 ± 60 µM.

And the kcat?
Its kcat is 33.03 ± 1.14 s⁻¹.

And the kcat/Km?
The kcat/Km was 38900 M⁻¹ s⁻¹.

“C. sinensis TK D1 (CsTK D1) (Clonorchis sinensis; Y84A)” was tested. Which Km did it give?
The Km was 820 ± 70 µM.

And the kcat?
Its kcat is 32.90 ± 1.54 s⁻¹.

And the kcat/Km?
Its kcat/Km is 40100 M⁻¹ s⁻¹.

Which results are given for “C. sinensis TK D2 (CsTK D2) (Clonorchis sinensis; H421A)”?
Km: 360 ± 70 µM; kcat: 5.92 ± 1.23 s⁻¹; kcat/Km: 15600 M⁻¹ s⁻¹

How did the Km turn out when “C. sinensis TK D2 (CsTK D2) (Clonorchis sinensis; I423A)” was run?
The Km was 300 ± 50 µM.

And the kcat?
The kcat was 6.46 ± 0.45 s⁻¹.

And the kcat/Km?
Its kcat/Km is 21500 M⁻¹ s⁻¹.

For “C. sinensis TK D2 (CsTK D2) (Clonorchis sinensis; Y447A)”, which Km is on record?
Its Km is 3640 ± 210 µM.

What about the kcat of the same molecule?
The kcat was 6.45 s⁻¹.

And the kcat/Km?
The kcat/Km was 1770 M⁻¹ s⁻¹.

For “C. sinensis TK D2 (CsTK D2) (Clonorchis sinensis; Y447R)”, which Km is on record?
The Km was 3010 ± 250 µM.

And the kcat?
Its kcat is 0.99 ± 0.52 s⁻¹.

What about the kcat/Km of the same molecule?
The kcat/Km was 330 M⁻¹ s⁻¹.

Which Km does the source give for “C. sinensis TK whole (CsTK D1D2) (Clonorchis sinensis; R58A)” here?
Its Km is 450 ± 190 µM.

And the kcat?
The kcat was 15.00 ± 0.25 s⁻¹.

What about the kcat/Km of the same molecule?
Its kcat/Km is 33300 M⁻¹ s⁻¹.

Substrate: Nc1ncnc2c1ncn2[C@@H]1O[C@H](COP(=O)(O)OP(=O)(O)OP(=O)(O)O)[C@@H](O)[C@H]1O
Experiment: purified protein
Format: biochemical, Clonorchis sinensis
Conditions: co-substrate taurocyamine, Mg-acetate, Tris-HCl pH 8, 25°C

Which Km does the source give for B1 here?
The Km was 460 ± 120 µM.

And the kcat?
The kcat was 22.59 ± 0.15 s⁻¹.

B2 was tested. Which Km did it give?
The Km was 750 ± 130 µM.

And the kcat?
The kcat was 4.50 ± 0.11 s⁻¹.

With B3 as the molecule, how does the Km read?
The Km was 780 ± 70 µM.

And the kcat?
Its kcat is 17.78 ± 0.98 s⁻¹.

Substrate: N=C(N)NCCS(=O)(=O)O
Experiment: purified protein
Format: biochemical, Clonorchis sinensis
Conditions: co-substrate ATP, Mg-acetate, Tris-HCl pH 8, 25°C
Remark: another data set of the same source

For B1, which Km is on record?
The Km was 350 ± 10 µM.

What about the kcat of the same molecule?
The kcat was 22.59 ± 0.15 s⁻¹.

And the kcat/Km?
Its kcat/Km is 54500 M⁻¹ s⁻¹.

What does the source list for B2?
Km: 480 ± 50 µM; kcat: 4.50 ± 0.11 s⁻¹; kcat/Km: 9380 M⁻¹ s⁻¹

Which Km does the source give for B3 here?
Its Km is 490 ± 20 µM.

And the kcat?
Its kcat is 17.78 ± 0.98 s⁻¹.

What about the kcat/Km of the same molecule?
Its kcat/Km is 36300 M⁻¹ s⁻¹.
